T1: Aβ(12-42) globulomer (human)
T1 construct: Non-covalent oligomer; the subunit number was not measured
T1 peptide: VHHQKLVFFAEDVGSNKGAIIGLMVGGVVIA


Experiments:
Assay in all cases: dot blot with densitometry; Aβ form dotted on nitrocellulose in serial dilution, antibody 0.2 µg/ml; higher value = weaker recognition
Aβ(1-42) globulomer = molecular target: T2, Aβ(1-42) globulomer (human, UniProt P05067 672-713)
T2 construct: the number was not measured for this preparation; also called 38/48-kDa Aβ(1-42) globulomer; Aβ(1-42) globular oligomer
Description: (§1) The dot blot was developed with 10 ml BM Blue POD Substrate for 10 min. The development was stopped by intense washing of the dot blot with H₂O. Quantitative evaluation was done based on a densitometric analysis (GS800 densitometer (BioRad) and software package Quantity one, Version 4.5.0 (BioRad)) of the dot intensity. […] This threshold value was determined for every dot blot independently. The calculated value indicates the relation between recognition of Aβ(20-42) globulomer and the respective Aβ form for the given antibody.
(§2) The individual Aβ forms were applied in serial dilutions and incubated with the respective antibodies for immune reaction (1=Aβ(1-42) monomer, 0.1% NH₄OH; 2=Aβ(1-40) monomer, 0.1% NH₄OH; 3=Aβ(1-42) monomer, 0.1% NaOH; 4=Aβ(1-40) monomer, 0.1% NaOH; 5=Aβ(1-42) globulomer; 6=Aβ(12-42) globulomer; 7=Aβ(20-42) globulomer; 8=Aβ(1-42) fibril preparation; 9=sAPPα (Sigma); (first dot: 1 pmol)).

Aβ(12-42) globulomer = molecular target: T1, Aβ(12-42) globulomer
Description: as §1, §2

Aβ(1-42) fibril = molecular target: T3, Aβ(1-42) fibril (human, UniProt P05067 672-713)
T3 construct: also called Aβ(1-42) fibrils; Aβ(1-42) fibril preparation
Description: as §1, §2

[1] = molecular target: T4, Aβ(1-42) monomer in 0.1% NH4OH (human)
T4 construct: The range counts on the Aβ peptide; also called Aβ(1-42) monomer, 0.1% NH4OH
Description: as §1, §2

[2] = molecular target: T5, Aβ(1-40) monomer in 0.1% NH4OH (human)
T5 construct: The range counts on the Aβ peptide; also called Aβ(1-40) monomer, 0.1% NH4OH
T5 sequence (peptide, as listed by the source): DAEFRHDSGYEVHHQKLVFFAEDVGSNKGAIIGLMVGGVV
Description: as §1, §2

[3] = molecular target: T6, Aβ(1-42) monomer in 0.1% NaOH (human)
T6 construct: also called Aβ(1-42) monomer, 0.1% NaOH
Description: as §1, §2

| dot blot relation of recognition of Aβ(20-42) globulomer to recognition of this Aβ form (Aβ(1-42) globulomer) | dot blot relation of recognition of Aβ(20-42) globulomer to recognition of this Aβ form (Aβ(12-42) globulomer) | dot blot relation of recognition of Aβ(20-42) globulomer to recognition of this Aβ form (Aβ(1-42) fibril) | dot blot relation of recognition of Aβ(20-42) globulomer to recognition of this Aβ form [1] | dot blot relation of recognition of Aβ(20-42) globulomer to recognition of this Aβ form [2] | dot blot relation of recognition of Aβ(20-42) globulomer to recognition of this Aβ form [3] | Binder |
| --- | --- | --- | --- | --- | --- | --- |
| 57000 | 41000 | – | – | – | – | murine monoclonal anti-Aβ(20-42) globulomer antibody m10B3 (antibody, V domains shown, Murine hybridoma antibody from mice immunized with Aβ(20-42) globulomer; also called mAb 10B3; Anti-Aβ monoclonal antibody clone m10B3) VH: EVKLVESGGGLVQPGGSRKLSCAASGFTFSDYEMVWVRQAPGEGLEWVAYISSGSRTIHYADTVKGRFTISRDNPKNTLFLQMSSLRSEDTAMYYCARTLLRLHFDYWGQGTILTVSS VL: not shown |
| 30000 | 60000 | 32600 | 36000 | 27300 | 39500 | murine monoclonal anti-Aβ(20-42) globulomer antibody m4C9 (antibody, V domains shown, Murine hybridoma antibody from mice immunized with Aβ(20-42) globulomer; also called mAb 4C9; Anti-Aβ monoclonal antibody clone m4C9) VH: QVQLQQPGAELVKPGASVKLSCKAPGYTFTSYWMHWVKQRPGQGLEWIGRIDPKSGDTKYTEKFKSKATLTVDKPSSTAYMQLSSLTSEDSAVYYCTTMSKLSGTHAWFAYWGQGTLVTVSA VL: DIKMTQSPSSMYASLGERVTITCKASQDINSYLTWFQQKPGKSPKTLIYRANRLVDGVPSRFSGSGSGQDYSLTISSLEYEDMGIYYCLQYDEFPLTFGAGTKLELK |
| – | 6 | – | – | – | – | Anti-Aβ monoclonal antibody clone 6E10 (Covance cat. no. SIG-39320) (antibody, V domains shown) VH: EVQLQQSGAELVKPGASVKLCTASGFNIKDTYIHWVKQRPEQGLEWIGRFDPVNVNTRYDSRFRGKATITSDASSNTAYLHLNSLTSEDTAVYYCSRSYYNGRRRFTYWGQGTLVTVSA VL: DIVMTQSPSSLTVTAGEKVALTCKASQSLLSSGNQKNYLTWYQQKPGQPPKLLIYWASIRESGVPDRFTGSGSGTFFTLTISSVQAEDLAVYYCQNDYNYPFTFGSGTKLEIK |
